For assay [1], the target named is T1, 6His-a2N(wt) (Mus musculus, UniProt P15920).
T1 construct: amino acid residues 1-402 of mouse V-ATPase a2-subunit (a2N1-402); made in house; host or cells: cell-free in vitro translation
T1 sequence (P15920 1-402): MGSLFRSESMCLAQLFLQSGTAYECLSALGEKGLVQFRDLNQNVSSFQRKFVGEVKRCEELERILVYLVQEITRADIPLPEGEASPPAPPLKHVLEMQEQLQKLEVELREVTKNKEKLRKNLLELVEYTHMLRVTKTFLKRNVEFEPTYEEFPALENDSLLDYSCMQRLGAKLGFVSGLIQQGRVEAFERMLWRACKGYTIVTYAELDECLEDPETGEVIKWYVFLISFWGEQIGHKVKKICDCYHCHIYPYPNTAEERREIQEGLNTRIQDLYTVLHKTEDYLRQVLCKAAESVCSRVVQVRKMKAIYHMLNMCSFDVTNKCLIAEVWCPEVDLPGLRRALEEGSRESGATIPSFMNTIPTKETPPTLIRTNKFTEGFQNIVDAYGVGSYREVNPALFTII
The assay is described as follows: ARNO-derived peptide pull-down with in vitro translated 6His-a2N(wt). In kind it is binding. As to conditions: 7 nmol biotin-tagged peptide on streptavidin-agarose beads. Here is the method:
FIGS. 4B-C are images of Western blots showing (4B) the results of peptide pull-down assays for interaction of a2N with Sec7-PH-linker of ARNO and (4C) phosphorylation-dependent interaction of a2N with ARNO-derived peptide corresponding to the PB-domain of ARNO. Corresponding ARNO-derived peptides were immobilized on streptavidin-beads and incubated with in vitro translated recombinant a2N. Interacting complexes were eluted and analyzed by Western blotting using anti-a2N antibodies.
ARNO-derived peptides, equal amounts (7 nmol) of biotin-tagged synthetic peptides were also immobilized on streptavidin-agarose beads followed by incubation with 10 μl of in vitro translated 6His-a2N(wt) recombinant protein. Pull-down experiments and SDS-PAGE analysis were performed as described above and interacting 6His-a2N/ARNO-derived-peptide complexes were analyzed by Western blotting using polyclonal anti-a2N antibody. All experiments were repeated at least three times with similar results.

Assay [2] addresses T2, GST-ARNO(wt) (Homo sapiens, UniProt Q99418).
T2 construct: i) 1-400aa, full length ARNO(wt); made in house; host or cells: E. coli BL21(DE3)
T2 sequence (Q99418 1-400): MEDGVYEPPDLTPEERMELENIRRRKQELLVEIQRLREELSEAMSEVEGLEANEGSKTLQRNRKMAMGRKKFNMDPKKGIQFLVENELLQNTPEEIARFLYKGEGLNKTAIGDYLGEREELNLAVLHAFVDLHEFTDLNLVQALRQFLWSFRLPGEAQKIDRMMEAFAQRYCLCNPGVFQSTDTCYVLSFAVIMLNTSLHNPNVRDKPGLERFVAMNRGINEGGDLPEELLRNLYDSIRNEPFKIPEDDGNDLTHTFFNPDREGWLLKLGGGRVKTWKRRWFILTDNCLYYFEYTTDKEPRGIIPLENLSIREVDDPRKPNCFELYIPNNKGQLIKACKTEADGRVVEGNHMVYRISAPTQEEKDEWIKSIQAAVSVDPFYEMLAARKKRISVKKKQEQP
The assay is described as follows: a2N-derived peptide pull-down assay with GST-ARNO(wt). As to conditions: for interaction of a2N-derived peptide with GST-ARNO(wt) in pull-down: Western blot anti-GST, GST-only as control; for interaction with ARNO (asterisk mark in Table 1): biotin-tagged peptides on streptavidin beads. Details: key to interaction with ARNO (asterisk mark in Table 1): The interacting peptides are indicated in bold with an asterisk (*). It counts as binding. Here is the method: FIG. 2A is an image of a Western blot showing the results of an a2N-derived peptide pull-down assay. The indicated a2N-derived peptides were immobilized on streptavidin-beads and incubated with purified recombinant GST-ARNO(wt). Interacting complexes were eluted and analyzed by Western blotting using monoclonal anti-GST antibodies.
FIG. 2B is an image of a Western blot showing the results of a pull-down assay with selected a2N-derived interacting peptides incubated with either GST (negative control) or GST-ARNO(wt). The first two lanes show the patterns obtained when either GST-only (lane 1) or GST-ARNO(wt) (lane 2) were loaded onto the gel.
Peptides were synthesized, purified by HPLC and analyzed by mass spectrometry in the MGH Peptide/Protein Core Facility. All a2N-derived peptides were synthesized with a biotin-tag on the N-terminus for immobilization on streptavidin-agarose beads and with an additional C-terminal cysteine residue for immobilization on beads using sulfhydryl-specific crosslinkers. A peptide corresponding to the PB-domain of ARNO was synthesized containing either a non-phosphorylated or a phosphorylated Ser392 residue. Peptide stock solutions were prepared in DMSO at 5 mM concentration and stored at −20° C. […]
Background: Immunoblotting shows a protein as a band on a membrane.

Assay [3] concerns the target T3, GST-only (UniProt P08515 1-218 = GST).
T3 construct: Control bait/prey in pull-down assays; also called GST (negative control)
The assay is described as follows: peptide pull-down: biotinylated peptide on streptavidin-agarose beads, GST-only in solution, Western blot with anti-GST antibody. On the procedure: FIGS. 5A-C are a set of three images of Western blots showing the identification of interaction motif of a2N that is involved in specific binding with the Sec7 domain of ARNO. 5A, The catalytic Sec7 domain of ARNO interacts with two a2N-derived peptides, a2N-01 and a2N-03, in pull-down experiments. The peptide pull-down assay was performed with six a2N-derived interaction peptides immobilized on streptavidin-beads and incubated with purified recombinant GST-only or GST-Sec7 domain. Interacting complexes were eluted and analyzed by Western blotting using monoclonal anti-GST antibodies as described below. The loading controls for GST-only (lane 1) or GST-Sec7 (lane 2) are shown. 5B, 5C: Peptide a2N-01 specifically interacts with Sec7 but not PH-domain (5B) or PB-domain (5C) of ARNO. The peptide pull-down assay was performed with peptides a2N-01 and a2N-03 immobilized on streptavidin-beads and incubated with purified recombinant GST-PH domain (5B) or GST-PB domain (5C). Interacting complexes were eluted and analyzed by Western blotting using monoclonal anti-GST antibodies. The loading control of GST-PH-domain (5B) or GST-PB-domain (5C) is shown on the left.
These a2N-derived peptides were immobilized by an N-terminal biotin-tag, which ensured the same efficiency and equivalent binding to streptavidin-agarose beads. Simultaneous pull-down experiments with immobilized peptides were performed using highly purified recombinant GST-only or GST-Sec7-6His as described below. […] To remove unbound peptides, beads were collected by centrifugation and washed in 500 μl ice-cold binding buffer. Next, equal amounts (20 pmoles) of highly purified recombinant GST-only or GST-Sec7-6His were added to the beads containing immobilized peptides and incubated for 2 hours at 4° C. in 500 μl of binding buffer. After washing beads four times in ice-cold binding buffer, the interacting complexes were eluted by boiling in SDS-PAGE sample buffer for 10 min at 95° C., resolved by SDS-PAGE and analyzed by Western blotting using monoclonal anti-GST antibody.

Assay [4] deals with T4, purified 6His-a2N (recombinant a2N protein, a2N1-402, expressed in E. coli and refolded) (mouse, UniProt P15920 1-402).
T4 construct: Immobilised by amine coupling on a CM4 chip for SPR; also called a2N(wt); a2N-His6(wt)
T4 sequence: T1 sequence (P15920 1-402)
The assay is described as follows: SPR (BIAcore T100), a2N immobilised on CM4 chip, ARNO(wt) as analyte, bivalent analyte fit. On the procedure: All reagents, including buffers, sensor chips and the amine coupling kit, were obtained from GE Healthcare. For kinetic analysis of the binding of ARNO(wt) with a2N(wt), purified 6His-a2N (5 μg/ml) in 10 mM sodium acetate (pH 4.0) was immobilized at 80 response units (RU) on a CM4 sensor chip using an amine coupling kit according to the manufacturer's instructions. The same kit was used to perform blank immobilization to create a reference surface on the same chip. Samples of purified GST-ARNO(wt) at concentrations ranging from 0.25-4 μM were injected for 6 min over active and reference surfaces at a flow rate of 30 μl/min in NBS-EP, 1 mM DTT running buffer (10 mM Hepes, pH 7.4, 150 mM NaCl, 3 mM EDTA, 0.05% Surfactant P20, 1 mM DTT). For kinetic analysis of the binding of the ARNO Sec7-domain with a2N-01 peptide, neutravidin (10 μg/ml) in 10 mM sodium acetate (pH 5.0) was immobilized at about 1200 RU on two surfaces of a CM4 sensor chip using an amine coupling kit. Following that, biotinylated a2N-01 peptide (50 RU) and amine-PEG₃-biotin (25 RU) were irreversibly captured by neutravidin to create active and a reference surfaces, respectively. Purified Sec7-6His recombinant protein was injected for 3.5 min over active and reference surfaces at concentrations ranging from 0.05-1 μM and a flow rate of 100 μl/min in NBS-EP, 1 mM DTT running buffer. Dissociation of the complexes was monitored for 10 min, and then the regeneration of the sensor surfaces was performed using 0.05% SDS with 1-min injection in the running buffer at a 20 μl/min flow rate. BIAcore™ T100 Evaluation software was used to calculate the association and dissociation rate constants (kₒₙ and koff) with a 1:1 fitting model. The dissociation constant (KD) was determined from the kₒₙ/koff values. To estimate affinity of interaction the corresponding free energy of binding ΔGbind=RTlnKD was calculated as previously described (Marles et al., Mol Cell 14 (2004) 813-823).
Specific concentration-dependent responses were obtained for both interactions. […]
Background: In SPR one partner is held on a chip, and binding of the other changes the refractive index at the surface.

This is an account of results in patent publication US20140162285A1, “Methods of Modulating Vesicular Trafficking” (The General Hospital Corporation, priority 2009, published 2014).

“Also recorded” adds a separate entry of the source. Ends that are not written are not given here. * marks the point of attachment. Biotin = O=C1N[C@H]2[C@H](CS[C@H]2CCCCC(=O)*)N1

T3 sequence (P08515 whole entry): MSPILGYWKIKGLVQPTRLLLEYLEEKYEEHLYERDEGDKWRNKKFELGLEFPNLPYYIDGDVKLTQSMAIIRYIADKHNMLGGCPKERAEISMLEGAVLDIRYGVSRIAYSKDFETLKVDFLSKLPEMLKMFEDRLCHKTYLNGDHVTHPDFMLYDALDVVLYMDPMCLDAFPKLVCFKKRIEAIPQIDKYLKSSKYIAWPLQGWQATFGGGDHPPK

For “ARNO375-400: biotinylated non-phosphorylated peptide covering the PB-domain of ARNO plus four PH/PB-linker amino acids, SEQ ID NO:32 (VSVDPFYEMLAARKKRISVKKKQEQP; also: biotinylated, site not given here)”, in assay [1], the “interaction of ARNO-derived peptide with a2N” value is “direct interaction”.

As for “Bio-GYTIVTYAELDECLEDP-Cys (GYTIVTYAELDECLEDPC) [a2N-11, AA 198-214 of a2N]”, in assay [2], the “interaction of a2N-derived peptide with GST-ARNO(wt) in pull-down” value (from here on “interaction of a2N-derived peptide”) is “specific interaction; also recorded: capable of interaction with ARNO” and the “interaction with ARNO (asterisk mark in Table 1)” value (“interaction with ARNO” for short) was “Bio-GYTIVTYAELDECLEDP-Cys *”. On to “Bio-YGVGSYREVNPALFTII-Cys (YGVGSYREVNPALFTIIC) [a2N-22, AA 386-402 of a2N]”, for which, in assay [2], the “interaction of a2N-derived peptide” value is on record as “specific interaction; also recorded: capable of interaction with ARNO” and the “interaction with ARNO” value was “Bio-YGVGSYREVNPALFTII-Cys *”. In the case of “Bio-ETGEVIKWYVFLISFW-Cys (ETGEVIKWYVFLISFWC) [a2N-12, AA 215-230 of a2N]”, in assay [2], the “interaction of a2N-derived peptide” value is reported as “specific interaction; also recorded: capable of interaction with ARNO” and the “interaction with ARNO” value was “Bio-ETGEVIKWYVFLISFW-Cys *”. “Bio-NMCSFDVTNKCLIAEVWCP-Cys (NMCSFDVTNKCLIAEVWCPC) [a2N-18, AA 313-331 of a2N]”: in assay [2], the “interaction of a2N-derived peptide” value is recorded as “specific interaction; also recorded: capable of interaction with ARNO” and the “interaction with ARNO” value is on record as “Bio-NMCSFDVTNKCLIAEVWCP-Cys *”. Consider “Bio-KHVLEMQEQLQKLEVELREVTKNKEKLRKNLLELVE-Cys (KHVLEMQEQLQKLEVELREVTKNKEKLRKNLLELVEC) [a2N-06, AA 92-127, predicted CC-domain of a2N]”, for which, in assay [2], the “interaction of a2N-derived peptide” value is listed as “did not bind”.

Turning to Biotin-GYTIVTYAELDECLEDPC (cysteine pairing not given here, also called a2N198-214) [a2N-11], the binding result in assay [3] is reported as “no binding”.

For Biotin-NMCSFDVTNKCLIAEVWCPC (cysteine pairing not given here, also called a2N313-331) [a2N-18], the binding result in assay [3] is on record as “no binding”. Consider Biotin-YGVGSYREVNPALFTIIC [a2N-22], for which the binding result in assay [3] was “no binding”. Consider Biotin-VQFRDLNQNVSSFQRC (also called a2N35-49) [a2N-03], for which the binding result in assay [3] is given as “no binding”.

B1: GST-ARNO(wt) (other, human, UniProt Q99418 1-400, looked up)
chain: T2 sequence (Q99418 1-400)
notes: range 1-400; Double-tagged construct (N-terminal GST, C-terminal 6xHis); also called full length ARNO(wt); wild-type ARNO; not shown: N-terminal GST-tag from the pGEX6P-1 vector; C-terminal 6xHis-tag
As to B1, in assay [4], the Kd worked out at 313 nM, the koff is 0.0015 s⁻¹ and the kon was 4770 M⁻¹ s⁻¹. For Biotin-ETGEVIKWYVFLISFWC (also called a2N215-230) [a2N-12], in assay [3], the binding result is listed as “no binding”.

A word on the koff: it is the first-order rate constant of dissociation. What is called kon is the rate constant with which the complex forms.
